According to publication PMC4644428:

Assays:
CRP (wild type) = CRP (wild type) (UniProt P0ACJ8 1-210); test: fluorescence polarization
CRPG = CRPG (UniProt P0ACJ8 1-210, R124N;T128C;S129T); test: fluorescence polarization

B1: 26-mer CRP consensus (dsDNA)
DNA 1: GTAAATGTGATGTACATCACATGGAT
DNA 2: ATCCATGTGATGTACATCACATTTAC
B1: binds (CRP (wild type)); binds (CRPG).
